This note sets out measurements from US20200299373A1.

Test [1] has as its target recombinant human FAM19A5 protein (His-tagged) (human) (UniProt Q7Z5A7). The experiment in a line: ELISA on N'-Term His FAM19A5, fit of the titration (OD 492 nm); R2 printed 0.1299.
The target is the same in test [2]. The experiment in a line: ELISA on N'-Term His FAM19A5, fit of the titration (OD 492 nm); R2 printed 0.2002. A general note: ELISA stands for enzyme-linked immunosorbent assay.
For test [3] the target is unchanged. The experiment in a line: two-site sandwich ELISA; capture antibody P2-A03; S/N = O.D. at 10 ng/mL antigen / O.D. at 0 ng/mL; O.D. in column 0 printed 0.09.
The target is the same in test [4]. Put plainly: ELISA on N'-Term His FAM19A5, fit of the titration; R2 printed 0.9692.
For test [5] the target is unchanged. The experiment in a line: two-site sandwich ELISA; capture antibody 2-13; biotinylated detection antibody P2-F11; antigen in ng/mL.
Test [6] has the same target. The experiment in a line: two-site sandwich ELISA; capture antibody 1-65; S/N = O.D. at 10 ng/mL antigen / O.D. at 0 ng/mL; O.D. in column 0 printed 0.12.
The target is the same in test [7]. Put plainly: two-site sandwich ELISA; capture antibody P2-A03; biotinylated detection antibody P2-F11; antigen in ng/mL.
Test [8] has the same target. The experiment in a line: two-site sandwich ELISA; capture antibody 3-2; biotinylated detection antibody P2-F11; antigen in ng/mL.
The target is the same in test [9]. The experiment in a line: two-site sandwich ELISA; capture antibody 3-2; S/N = O.D. at 10 ng/mL antigen / O.D. at 0 ng/mL; O.D. in column 0 printed 0.13.
Test [10] has the same target. Put plainly: two-site sandwich ELISA; capture antibody 13B4; S/N = O.D. at 10 ng/mL antigen / O.D. at 0 ng/mL; O.D. in column 0 printed 0.18.
For test [11] the target is unchanged. The experiment in a line: two-site sandwich ELISA; capture antibody 13B4; biotinylated detection antibody P2-F11; antigen in ng/mL.
For test [12] the target is unchanged. Put plainly: two-site sandwich ELISA; capture antibody 1-65; biotinylated detection antibody P2-F11; antigen in ng/mL.
For test [13] the target is unchanged. Put plainly: ELISA on N'-Term His FAM19A5, fit of the titration (OD 492 nm); R2 printed 0.9692.
Test [14] shares this target. The experiment in a line: two-site sandwich ELISA; capture antibody 2-13; S/N = O.D. at 10 ng/mL antigen / O.D. at 0 ng/mL; O.D. in column 0 printed 0.29.
For test [15] the target is unchanged. Put plainly: ELISA on N'-Term His FAM19A5, fit of the titration (OD 492 nm); R2 printed 0.9422.
Test [16] has the same target. Put plainly: ELISA on N'-Term His FAM19A5, fit of the titration; R2 printed 0.9422.
A further test has as its target T1, F2-03-BSA (human).
T1 chain: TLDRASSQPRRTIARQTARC
The experiment in a line: ELISA on mutant F2 peptide-BSA #3. To be noted: remark: other sources report otherwise.

Test [17] has as its target recombinant human FAM19A5 protein (His-tagged) (human) (UniProt Q7Z5A7). The experiment in a line: ELISA on coated FAM19A5, as in Example 6.
Test [18] shares this target. Put plainly: ELISA on N'-Term His FAM19A5, fit of the titration (OD 492 nm); R2 printed 0.8703.
The target is the same in test [19]. The experiment in a line: ELISA on N'-Term His FAM19A5, fit of the titration (OD 492 nm); R2 printed 0.9105.
The target is the same in test [20]. The experiment in a line: ELISA on N'-Term His FAM19A5, fit of the titration; R2 printed 0.9105.

B1: P1-F02 (antibody, V domains shown)
VH: QSLEESGGRLVTPGTPLTLTCTASGFSLSNYYMGWVRQAPGEGLEWIGIIYASGSTYYASWAKGRFTISKTSTTVDLKMTSLTTEDTATYFCARIDIGVGDYGWAYDRLDLWGQGTLVTVSS
VL: ELDMTQTPPSLSASVGETVRIRCLASEDIYSGISWYQQKPGKPPTLLIYGASNLESGVPPRFSGSGSGTDYTLTIGGVQAEDAATYYCLGGYSYSSITFGAGTNVEIKR
Regarding B1, the Bmax in test [1] stood at 0.172.

B2: P2-F07 (antibody, V domains shown)
VH: QSLEESGGRLVTPGTPLTLTCTASGFSLSSYYMNWVRQAPGKGLEWIGIIYPSGTTYYAGWAKGRFTISKTSTTVDLKITSPTSEDTATYFCARTVSGYFDIWGPGTLVTVSL
VL: ELDLTQTPPSLSASVGGTVTINCLASEDIYSALAWYQQKPGKPPTLLISGTSNLESGVPPRFSGSGSGTDYTLTIGGVQAEDAATYFCQGYSSYPLTFGAGTNVEIKR
With B2, the Bmax in test [2] was found to be 0.134.

B3: anti-FAM19A5 antibody P2-F11 (antibody, V domains shown)
VH: QEQLVESGGRLVTPGTTLTLTCTVSGFSLSSYGVSWVRQAPGKGLEWIGYIANNYNPHYASWAKGRFTISKTSSTTVDLKMTSLTTEDTATYFCARDNYGMDPWGPGTLVTVSS
VL: ELDLTQTPSSVSAAVGGTVTINCQASQSVYNNKNLAWYQQKPGQPPKLLIYAASTLASGVSSRFKGSGSGTQFTLTISDVQCDDAATYYCQGEFSCSSADCNAFGGGTELEILR
modifications: Biotinylated when used as detection antibody in FIG. 6B.
Broadly, the Kd is the concentration at which binding is half-saturated. For B3, the S/N in test [3] amounted to 1; in test [6], 1.7; in test [9], 13.9; in test [10] it was 1; in test [14], 7. In addition, in [4], the Kd turned out to be 0.41 nM. Also, the O.D., antigen 100 in test [5] was determined as 1.83; in test [7], 0.09; in [8], 2.02; in [11], 0.2; in test [12], 1.25. Moreover, the O.D., antigen column 10 in [5] came to 2.04; in [7] it was 0.09; in [8] it was 1.81; in test [11] it was 0.18; in [12] it was 0.2. In test [13], the Bmax was 3.26.

B4: P2-C12 (antibody, V domains shown)
VH: QSLEESGGRLVTPGTPLTLTCTVSGFSLSTYAVTWVRQAPGKGLEWIGYINWRGGTSYANWAKGRFTISKTSSTTVDLKMTSPTTEDTATYFCARDASSGAAFGSYGMDPWGPGTLVTVSS
VL: ELDMTQTPSSVSAAVGGTVTIKCQASQSISSYLSWYQQKPGQPPKLLIYEASKLASGVPSRFSGSGYGTEFTLTISDLECADAATYYCQQGYSSTNVWNAFGGGTNVEIKR
As to B4, the Bmax in test [15] was found to be 1.73. The equilibrium dissociation constant (Kd) in test [16] was determined as 7.64 nM.

B5: anti-FAM19A5 antibody 1-28 (antibody, V domains shown)
VH: AVTLDESGGGLQTPGGALSLVCKASGFDFSDYGMGWVRQAPGKGLEWVAAIRSDGSNPSYGSAVKGRATISKDNGRSTVRLQLNNLRAEDTATYYCAKDGNGYCALDAYRSGGYSCGVYPGSIDAWGHGTEVIVSS
VL: ALTQPSSVSANLEGTVEITCSGSGYGYGWYQQKSPGSAPVTVIYQNDKRPSDIPSRFSGSKSGSTGTLTITGVQVEDEAVYYCGSEDSSTLAGIFGAGTTLTVL
modifications: here or on the partner: conjugated to BSA
In the case of B5, the O.D (492nm) with F2-03-BSA (human) is 0.055. For the same molecule, the Kd in test [17] came to 0.17 nM. Also, the Bmax in test [18] came to 2.94.

B6: P2-A01 (antibody, V domains shown)
VH: QEQLVESGGRLVTPGTPLTLSCTASGFFLSGYYMSWVRQAPGKGLEWIGIIYPSGSTDYASWAKGRFTISKTSTTVDLKITTPTTEDTATYFCARVAGYVGYGYETFFDIWGPGTLVTVSL
VL: ELVMTQTPPSLSASVGETVRIRCLASEDIYSGISWYQQKPGKPPTLLIYGASNLESGVPPRFSGSGSGSDYTLTIGGVQAEDAATYYCLGGVTYSSTGTHLTFGAGTNVEIKR
Consider B6, for which the Bmax in test [19] was determined as 1.19. In addition, the Kd in [20] is 9.09 nM.
